Measured values from patent US20260365692A1, “COMPOSITIONS COMPRISING PROTEINS DISSOLVED IN FLUORINATED SOLVENTS, AND METHODS OF MAKING AND USING THE SAME” (priority 2022, published 2026).

Legend:
[1] = Thermal stability of proteins in PFNA/PFOc (bioactivity after heating); type: physicochemical; conditions: PFNA/PFOc mixture compared to aqueous solution, 30 min heating
Experimental: FIGS. 16A-16C depict that the thermal stability of β-gal, GFP, and Trypsin is enhanced when the proteins are dissolved in a PFNA/PFOc mixture, compared to aqueous solutions of the proteins.
PFNA enhanced thermal stability in PFOc Differential scanning calorimetry (DSC) measurements were performed on 5 test proteins dissolved in either PBS (Aq.) or Perfluorooctane (PFOc). PFNA dispersant was added only for the PFOc conditions. DSC was performed at 2 °C/min ramp from 40 °C-100 °C. Melting temperature (Tm) was determined based on positive inflection of heat capacity curve, indicating protein unfolding (FIG. 15). Change in melting temperature (ATm (°C)) represented the difference in Tm between aqueous (Aq.) and PFOc data. Tm for GFP in PFOc could not be achieved at the maximum temperature of 100 °C for the DSC experiments. Each protein was dissolved in PBS (Aq.) or PFNA/PFOc mixture. Dissolved proteins were heated to 75 °C (β-gal), 90 °C (GFP) or 80 °C (Trypsin); treatment temperatures were determined based on aqueous melting temperatures for each protein. Positive controls were maintained at room temperature (25 °C). […] Bioactivity was evaluated then via fluorescence measurements for GFP, or using colorimetric substrate conversion assays (ONPG for β-gal, BAEE for Trypsin). […]

[2] = β-Gal activity after bleach exposure; type: physicochemical; conditions: β-Gal in PFOc
Experimental: FIGS. 54A-54C depict the relative activity of the β-Gal protein dispersed in PBS or PFOc solvents without and with contamination by (FIG. 54A) proteinase K, (FIG. 54B) bleach or (FIG. 54C) hydrochloric acid. Data shown as average±s.d. of n=3 technical replicates. Statistical significance between conditions is indicated by a line using unpaired Student's t-test with n.s.=not significant, * p<0.05, ** p<0.01, and *** p<0.001.
Here, stock of lyophilized β-Gal was prepared then dispersed in PBS or PFOc. A small volumetric quantity (1% v/v) of 10% bleach was added to the protein samples. Immediately, an equal volume of PBS containing 4 mg/mL ONPG substrate was added to the sample and incubated for 5 minutes to allow for complete substrate conversion. Last, absorbance was taken at 420 nm on the eluted samples, and relative activity was calculated by normalizing absorbance of converted ONPG in oxidizer-treated samples against their corresponding untreated group. […] Here, stock of lyophilized B-Gal was prepared then dispersed in PBS or PFOc. A small volumetric quantity (4% v/v) of 0.1 M HCl was added to the protein samples. After 30 seconds incubation, PBS containing 4 mg/mL ONPG was added to each of the samples to elute and start substrate conversion. After 3-minute conversion, the eluted samples were retrieved, and absorbance was read at 420 nm. […]

[3] = tested on: seven model proteins (Hb, GFP, BSA, β-Gal, IgG, TFN, URE); experiment: Fluorochemical-mediated dispersion of test proteins into perfluorohexane; type: physicochemical; conditions: PFNA-mediated, protein hydrodynamic radius 3.5 nm
Description: Only the rabbit IgG Fc fragment is shown.
For PFAS amphiphiles, the combination of polar head group and fluorophilic tail additionally leads to their preferential assembly at water-fluorous interfaces. Based on these unique properties, it was speculated that PFAS compounds may noncovalently associate with proteins to mediate their phase separation into fluorous media. To test this, a screening assay was developed to qualitatively investigate the binding affinity of a library of perfluorinated chemicals with seven model proteins, which include human hemoglobin (Hb), green fluorescent protein (GFP), bovine serum albumin (BSA), (β-Galactosidase (β-Gal), rabbit serum immunoglobulin (IgG), bovine apo-transferrin (TFN), and urease (URE). This group of model proteins captures an array of physicochemical properties ranging in molecular weight, solvent accessible surface area (SASA), isoelectric point (pI), and hydrodynamic radii. A corresponding perfluorinated small molecule test set was selected to contain a plurality of functional groups, linear perfluorocarbon chain lengths, and cyclic or aromatic geometries (FIGS. 1-7). Selection of these compounds was based on their potential to form noncovalent bonds (i.e., hydrogen or ionic) with the solvent exposed protein surfaces. […] These three linear PFAS chemicals are currently regulated by the US Environmental Protection Agency based on their reproductive, immune, and hepatic toxicity (References: 44-46). In sum, the structural and biochemical diversity represented in the protein and fluorochemical libraries was rationally selected to allow structure-function-performance relationships to be ascertained from binding studies.

rabbit serum IgG = experiment: Circular dichroism with PFNA, rabbit serum IgG; conditions: 0.001-1 mM PFNA
Description: FIGS. 14A-14L depict circular dichroism spectra of Hb (FIG. 14A), GFP (FIG. 14B), BSA (FIG. 14C), β-Gal (FIG. 14D), rabbit serum IgG (FIG. 14E), transferrin (FIG. 14F), and urease (FIG. 14G) in the absence (black line) or presence (dashed lines) of PFNA. Increasing dash sequence indicated higher concentration of PFNA. FIG. 14H: Change in molar ellipticity at 216 nm (Δθ216) of PFNA-treated proteins, relative to native controls, as a function of increasing ligand concentration. FIG. 14I: Percentage change in secondary structural motifs of Hb, β-Gal and IgG between the native protein and 1 mM PFNA treated samples. β-sheet structures were further differentiated into parallel and antiparallel conformations. Hb, β-Gal and IgG were prioritized for analysis based on their significant spectral shift in the presence of 1 mM PFNA. FIGS. 14J-14L: Sensograms for BSA (FIG. 14J), β-gal (FIG. 14K), and IgG (FIG. 14L) showing relative response (R.U.) at 10, 25, 50, 75, and 100 μM.
To explore PFNA-mediated changes in protein structure, dose-response circular dichroism (CD) studies were performed (FIG. 14A-14G). […] Remarkably, these structural changes endured even at sub-stoichiometric PFNA:protein ratios (see 0.001 mM PFNA in […]; protein concentration was constant at 0.01 mM).

| Compound | thermal stability [1] | β-Gal activity versus PBS controls ([2]; bleach) | loss in functionality ([2]; bleach (1% v/v of 10% bleach), few minutes) | protein dispersion [3] | CD structural change, rabbit serum IgG (rabbit serum IgG) |
| --- | --- | --- | --- | --- | --- |
| β-Gal: β-Galactosidase (β-Gal), dissolved in PBS/saline or dispersed in PFOc | enhanced | statistically higher than that of PBS controls | ≥ 50% | – | – |
| O=C(O)C(F)(F)C(F)(F)C(F)(F)C(F)(F)C(F)(F)C(F)(F)C(F)(F)C(F)(F)F [Compound 7, perfluoronanonic acid] | – | – | – | 60% | marked increase in β-sheet content |
